Laboratory results taken from the Human Domainome abundance scans (Beltran et al. 2025).
± gives the uncertainty stated by the source.

B1: Chromodomain-helicase-DNA-binding protein 4, residues 365 to 417; numbered along this chain, Q14839 (parent)
chain: YETDHQDYCEVCQQGGEIILCDTCPRAYHMVCLDPDMEKAPEGKWSCPHCEKE

Variants of: B1
Experiment: abundance fitness (aPCA) (normalised: wild type 0, dead -1); higher = more abundant; growth selection in yeast, the domain comes from the species named
Conditions: Homo sapiens

Variant	abundance fitness
D36R	-0.055 ± 0.12
D36H	0.161 ± 0.23
D36W	-0.37 ± 0.14
G43P	-0.209 ± 0.15
G43A	0.061 ± 0.12
G43V	-0.375 ± 0.12
G43W	-0.164 ± 0.11
G43F	-0.35 ± 0.18
G43I	-0.382 ± 0.22
G43N	-0.076 ± 0.21
G43Q	-0.078 ± 0.15
G43D	-0.164 ± 0.19
G43L	-0.232 ± 0.099
G43K	-0.012 ± 0.2
G43M	-0.151 ± 0.14
G43E	0.179 ± 0.15
G43C	-0.217 ± 0.15
G43T	-0.272 ± 0.15
G43H	-0.505 ± 0.26
G43S	-0.099 ± 0.12
G43R	-0.09 ± 0.086
V31N	0.113 ± 0.21
V31H	0.104 ± 0.18
V31T	-0.431 ± 0.17

Variant	abundance fitness
V31S	0.044 ± 0.11
V31L	0.258 ± 0.098
V31W	-0.236 ± 0.14
V31A	0.121 ± 0.11
V31K	0.027 ± 0.17
V31C	0.138 ± 0.18
V31G	-0.017 ± 0.091
V31E	-0.089 ± 0.13
V31Q	-0.1 ± 0.14
V31D	-0.005 ± 0.14
V31I	-0.234 ± 0.15
V31P	0 ± 0.14
V31R	-0.032 ± 0.1
V31F	-0.031 ± 0.16
V31M	-0.417 ± 0.16
V31Y	0.112 ± 0.16
W45C	-0.101 ± 0.13
W45A	0.005 ± 0.13
C32T	-0.94 ± 0.17
C32Y	-1 ± 0.21
C32P	-0.794 ± 0.19
C32M	-0.687 ± 0.15
C32S	-0.952 ± 0.14
C32F	-1.02 ± 0.25

Variant	abundance fitness
C32G	-0.967 ± 0.13
C32A	-0.737 ± 0.14
C32W	-0.936 ± 0.13
C32H	-0.072 ± 0.21
C32D	-0.486 ± 0.21
C32N	-1.04 ± 0.39
C32E	-0.504 ± 0.17
C32K	-0.817 ± 0.22
C32L	-0.776 ± 0.12
C32I	-0.916 ± 0.24
C32Q	-1.08 ± 0.23
C32V	-0.63 ± 0.12
A27T	-0.094 ± 0.12
A27Q	-0.424 ± 0.16
A27W	-0.257 ± 0.13
A27L	-0.15 ± 0.094
A27I	-0.421 ± 0.14
A27Y	0.086 ± 0.15
A27S	-0.088 ± 0.13
A27V	-0.077 ± 0.1
A27P	-0.262 ± 0.17
A27K	-0.238 ± 0.18
A27N	-0.165 ± 0.16
A27D	-0.545 ± 0.2

Variant	abundance fitness
A27E	-0.672 ± 0.14
A27F	-0.172 ± 0.17
A27C	-0.02 ± 0.2
A27H	-0.276 ± 0.18
A27G	-0.162 ± 0.099
P41L	-0.092 ± 0.1
P41Y	0.022 ± 0.19
P41C	-0.212 ± 0.14
P41N	0.435 ± 0.23
P41F	0.034 ± 0.17
P41D	0.022 ± 0.17
P41E	0.07 ± 0.14
P41T	-0.105 ± 0.16
P41K	-0.015 ± 0.18
P41H	-0.378 ± 0.2
P41R	0.123 ± 0.094
P41Q	-0.109 ± 0.18
P41I	0.055 ± 0.17
P41G	0.151 ± 0.1
P41S	-0.046 ± 0.1
P41A	0.117 ± 0.12
P41V	-0.218 ± 0.12
P41M	-0.06 ± 0.16
E42A	-0.178 ± 0.13

Variant	abundance fitness
E42C	-0.026 ± 0.21
E42Y	-0.17 ± 0.27
E42Q	-0.012 ± 0.17
E42P	0.052 ± 0.18
E42I	-0.261 ± 0.23
E42V	0.066 ± 0.11
E42T	0.066 ± 0.17
E42L	-0.087 ± 0.11
E42G	-0.114 ± 0.11
E42H	-0.394 ± 0.21
E42S	-0.129 ± 0.13
E42W	-0.49 ± 0.14
E42M	-0.069 ± 0.15
E42F	-0.315 ± 0.22
E42K	0.026 ± 0.18
E42D	-0.182 ± 0.16
M37K	-0.242 ± 0.24
M37I	-0.023 ± 0.19
M37L	-0.059 ± 0.11
M37G	-0.199 ± 0.1
M37W	0.079 ± 0.12
M37Q	-0.103 ± 0.15
M37A	-0.067 ± 0.11
M37F	0.24 ± 0.15

Variant	abundance fitness
M37D	-0.451 ± 0.23
M37V	0.076 ± 0.094
M37R	0.054 ± 0.095
M37T	-0.329 ± 0.12
M37S	0.079 ± 0.12
M37H	-0.217 ± 0.22
M37C	0.34 ± 0.18
M37E	-0.392 ± 0.14
M37N	0.141 ± 0.23
M37P	0.026 ± 0.11
H29A	-0.967 ± 0.13
H29P	-1.1 ± 0.21
H29K	-0.943 ± 0.19
H29V	-1.15 ± 0.11
H29G	-0.698 ± 0.093
H29L	-1.04 ± 0.14
H29C	0.028 ± 0.16
H29Y	-0.841 ± 0.16
H29N	-0.491 ± 0.26
H29W	-0.999 ± 0.12
H29I	-1.17 ± 0.24
H29F	-1.05 ± 0.29
H29M	-0.686 ± 0.16
H29Q	-0.746 ± 0.14

Variant	abundance fitness
H29T	-0.79 ± 0.15
H29D	-0.306 ± 0.19
H29S	-0.477 ± 0.11
H29E	-0.951 ± 0.15
A40E	-0.102 ± 0.16
A40W	-0.135 ± 0.13
A40Y	-0.462 ± 0.17
A40M	0.043 ± 0.14
A40F	0.015 ± 0.18
A40N	-0.351 ± 0.27
A40G	-0.157 ± 0.1
A40S	-0.126 ± 0.094
A40H	0.33 ± 0.2
A40K	-0.043 ± 0.2
A40T	-0.151 ± 0.14
A40Q	-0.208 ± 0.16
A40C	-0.035 ± 0.16
A40R	-0.178 ± 0.12
A40V	-0.093 ± 0.094
A40P	-0.209 ± 0.12
A40I	0.464 ± 0.2
A40D	0.016 ± 0.17
A40L	0.095 ± 0.1
